This is an account of results in article PMC12559291.

Where “and” joins values, the source holds several entries; their conditions need not be identical. Identical values can stand only once.

For assay [1], the target named is α5β1 integrin purified from rat liver (rat) (UniProt P49134). Description: cryo-EM structure; rat α5β1 integrin in peptidiscs on cobalt beads, sialidase-treated, 4 μM Gal3 for 2 h at 21 °C, eluted with 10 mM EDTA and vitrified at once; 6.9 Å.
Assay [2] shares this target. Description: cryo-EM structure; rat α5β1 integrin in GSL-containing nanodiscs on cobalt beads, sialidase-treated, 4 μM Gal3 for 2 h at 21 °C, eluted with 10 mM EDTA and vitrified at once; three subsets at 7.4, 8.5 and 7.6 Å; Gal3 CRDs (PDB 1KJL) fitted as rigid bodies.
Assay [3] concerns the target galectin-3 (Gal3), human recombinant, made as Gal3-TEV-6xHis and freed of the tag by TEV protease (human) (UniProt P17931). The assay is described as above.
For assay [4] the target is unchanged. Description: negative stain EM; lactose-washed RPE-1 cells with exogenous Gal3 (50 μg/mL) for 30 min at 4 °C; surface-bound Gal3 eluted with I3; 2D classification of the eluted particles in cryoSPARC.
The target of assay [5] is α5β1 integrin purified from rat liver (rat) (UniProt P49134). Briefly: single-molecule photobleaching (TIRF); sialidase-treated rat α5β1 integrin in biotinylated peptidiscs complexed with 4 μM Gal3-Cy3 on cobalt beads, eluted with EDTA, immobilised on neutravidin-coated glass; 21 °C.
Assay [6] has as its target galectin-3 (Gal3), human recombinant, made as Gal3-TEV-6xHis and freed of the tag by TEV protease (human) (UniProt P17931). Briefly: negative stain EM; Gal3 or Gal3∆Nter (4 μM, 2 h at 21 °C) on inactive rat α5β1 integrin in nanodiscs held on cobalt beads, washed, eluted with 50 μM I3; the eluted particles counted as monomers or ring-shaped oligomers.

On to “galectin-3 (Gal3), human recombinant, made as Gal3-TEV-6xHis and freed of the tag by TEV protease (from UniProt P17931 1-250) (natural protein)”, for which the stoichiometry N (usually a count of units in the complex or per binding partner) was 2 in assay [1]; 2 and 3 and 4 in assay [2]; 2 and 3 and 4 in assay [3]; 2 and 3 and 4 in assay [4]; below 4 in assay [5]. The percent of oligomer particles classed as dimers in assay [4] was determined as 37%. Further, the percent of oligomer particles classed as tetramers in assay [4] was determined as 22%. The percent of oligomer particles classed as trimers in assay [4] was determined as 41%. Besides, the percent of eluted Gal3 particles that are ring-shaped oligomers in assay [6] was 40%.
